How the values were obtained:
Assay in all cases: SPOT array
[1] = target: T1, Myo5 SH3 (MYO5_YEAST), Q04439
T1 chain: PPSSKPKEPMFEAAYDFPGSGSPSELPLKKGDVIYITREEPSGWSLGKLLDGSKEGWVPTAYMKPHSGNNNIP

[2] = target: T2, Boi1 SH3 (BOI1_YEAST), P38041
T2 chain: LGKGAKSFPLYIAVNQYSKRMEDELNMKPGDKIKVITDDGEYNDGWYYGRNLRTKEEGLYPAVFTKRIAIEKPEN

[3] = target: T3, Yhr016c SH3 (YSC84_YEAST), P32793
T3 chain: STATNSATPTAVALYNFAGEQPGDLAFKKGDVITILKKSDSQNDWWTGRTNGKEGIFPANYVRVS

[4] = target: T4, Boi2 SH3 (BOI2_YEAST), P39969
T4 chain: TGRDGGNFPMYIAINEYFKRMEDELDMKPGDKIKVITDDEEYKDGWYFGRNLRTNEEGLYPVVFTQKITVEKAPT

[5] = target: T5, Rvs167 SH3 (RV167_YEAST), P39743
T5 chain: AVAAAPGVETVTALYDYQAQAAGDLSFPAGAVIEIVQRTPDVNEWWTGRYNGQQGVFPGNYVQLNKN

[6] = target: Sho1 SH3 (SHO1_YEAST), P40073
[7] = target: T6, Yfr024 SH3 (LSB3_YEAST), P43603
T6 chain: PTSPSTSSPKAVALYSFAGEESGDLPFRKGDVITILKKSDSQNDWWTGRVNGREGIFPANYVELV

Chain of Sho1 SH3 (SHO1_YEAST), P40073 (P40073 295-366): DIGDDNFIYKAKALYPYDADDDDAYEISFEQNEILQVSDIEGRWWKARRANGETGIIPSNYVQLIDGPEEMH

Row | Binder | normalised SPOT signal, Boehringer light units (BLU); mean over the file's lines of this peptide [1] | normalised SPOT signal, Boehringer light units (BLU); mean over the file's lines of this peptide [2] | normalised SPOT signal, Boehringer light units (BLU); mean over the file's lines of this peptide [3] | normalised SPOT signal, Boehringer light units (BLU); mean over the file's lines of this peptide [4] | normalised SPOT signal, Boehringer light units (BLU); mean over the file's lines of this peptide [5] | normalised SPOT signal, Boehringer light units (BLU); mean over the file's lines of this peptide [6] | normalised SPOT signal, Boehringer light units (BLU); mean over the file's lines of this peptide [7]
1 | PKKSRVLPPLPFPL [YER032W 884-897] | 3590 | 940 | 3660 | 16.2 | 18900 | 25000 | 12800
2 | PPQMRSNPQQPPQD [YPL204W 472-485] | 268 | 92.2 | 456 | 194 | 306 | 56.5 | 3150
3 | PPSIRKQPIAPDVL [YJR092W 754-767] | 150 | 220 | 29.6 | 13.5 | 49.5 | 25.8 | 450
4 | PLRERIIPILPANS [YMR164C 159-172] | 175 | 340 | 84.4 | 16 | 261 | 950 | 949
5 | PKSPKAYPKLPDIQ [YDL117W 352-365] | 357 | 409 | 24.1 | 23.5 | 0 | 143 | 83.8
6 | PQQNRPLPQLPNRN [YOR181W 307-320] | 186 | 3740 | 50100 | 4.1 | 53800 | 31600 | 36200
7 | PNPLKKAPIPPLAY [YPR059C 36-49] | 137 | 73.1 | 16.4 | 0 | 28.8 | 20.3 | 15.3
8 | PSAMKLVPSIPPAT [YBR154C 118-131] | 561 | 89.4 | 63.3 | 21.6 | 45.4 | 42.6 | 251
9 | PSHYRNIPYNPATF [YBR194W 90-103] | 175 | 188 | 11.3 | 8.5 | 27.8 | 65.2 | 100
10 | PRSKKKKPAPPTLL [YMR039C 165-178] | 413 | 84.3 | 37.5 | 17.2 | 49.7 | 57.4 | 157
11 | PKTGKPLPTQPSSS [YKR001C 557-570] | 193 | 609 | 24.1 | 9.7 | 64.7 | 22000 | 89.9
12 | PQTMRQAPKRPDAD [YNL298W 493-506] | 3260 | 350 | 6220 | 743 | 3750 | 121 | 15700
13 | PPLPRAPPVPPATF [YJL021C 6-19] | 35900 | 152 | 10.8 | 13.2 | 17.7 | 29.4 | 135
14 | PPPPRRGPAPPPPP [YOR181W 345-358] | 15000 | 4340 | 39.4 | 19.8 | 57 | 8.1 | 212
15 | PPRFKNFPTLPSKI [YLL015W 59-72] | 634 | 572 | 87.6 | 60.1 | 210 | 3830 | 2550
16 | PPNYKQQPNSPSSN [YLR183C 18-31] | 148 | 61 | 30.5 | 17.5 | 1 | 27.6 | 184
